# B1: bLf C-lobe (aa 285-689) (protein)
# chain: SFQLFGSPPGQRDLLFKDSALGFLRIPSKVDSALYLGSRYLTTLKNLRETAEEVKARYTRVVWCAVGPEEQKKCQQWSQQSGQNVTCATASTTDDCIVLVLKGEADALNLDGGYIYTAGKCGLVPVLAENRKSSKHSSLDCVLRPTEGYLAVAVVKKANEGLTWNSLKDKKSCHTAVDRTAGWNIPMGLIVNQTGSCAFDEFFSQSCAPGADPKSRLCALCAGDDQGLDKCVPNSKEKYYGYTGAFRCLAEDVGDVAFVKNDTVWENTNGESTADWAKNLNREDFRLLCLDGTRKPVTEAQSCHLAVAPNHAVVSRSDRAAHVKQVLLHQQALFGKNGKNCPDKFCLFKSETKNLLFNDNTECLAKLGGRPTYEEYLGTEYVTAIANLKKCSTSPLLEACAFLTR
# B2: bLf C-lobe (aa 345-689) (protein)
# chain: VVWCAVGPEEQKKCQQWSQQSGQNVTCATASTTDDCIVLVLKGEADALNLDGGYIYTAGKCGLVPVLAENRKSSKHSSLDCVLRPTEGYLAVAVVKKANEGLTWNSLKDKKSCHTAVDRTAGWNIPMGLIVNQTGSCAFDEFFSQSCAPGADPKSRLCALCAGDDQGLDKCVPNSKEKYYGYTGAFRCLAEDVGDVAFVKNDTVWENTNGESTADWAKNLNREDFRLLCLDGTRKPVTEAQSCHLAVAPNHAVVSRSDRAAHVKQVLLHQQALFGKNGKNCPDKFCLFKSETKNLLFNDNTECLAKLGGRPTYEEYLGTEYVTAIANLKKCSTSPLLEACAFLTR
# Key:
# [1] = molecular target: Hemagglutinin (HA) of Avian 29/05/06 H5N1 (inactivated vaccine) (Influenza A virus Avian 29/05/06 H5N1); assay: cell-based or functional assay
# [2] = molecular target: Hemagglutinin (HA) of Influenza SW [change] 1089/09 swine pandemic H1N1 (inactivated subunits, vaccine) (Influenza A virus SW [change] swine pandemic H1N1); assay: cell-based or functional assay
Binder,activity on viral hemagglutination (HI) [1],activity on viral hemagglutination (HI) [2]
B1,2.9 pM,46.5 fM
B2,2.4 pM,46.5 fM

# From patent publication US20140322196A1
